According to patent US20110230416A1:

Target: hLDLR of non-genetically modified human cells (human fibroblasts, HUVEC) (human), P01130
Assay: FACS on HUVEC

Sequence of hLDLR of non-genetically modified human cells (human fibroblasts, HUVEC) (human), P01130 (P01130 22-860): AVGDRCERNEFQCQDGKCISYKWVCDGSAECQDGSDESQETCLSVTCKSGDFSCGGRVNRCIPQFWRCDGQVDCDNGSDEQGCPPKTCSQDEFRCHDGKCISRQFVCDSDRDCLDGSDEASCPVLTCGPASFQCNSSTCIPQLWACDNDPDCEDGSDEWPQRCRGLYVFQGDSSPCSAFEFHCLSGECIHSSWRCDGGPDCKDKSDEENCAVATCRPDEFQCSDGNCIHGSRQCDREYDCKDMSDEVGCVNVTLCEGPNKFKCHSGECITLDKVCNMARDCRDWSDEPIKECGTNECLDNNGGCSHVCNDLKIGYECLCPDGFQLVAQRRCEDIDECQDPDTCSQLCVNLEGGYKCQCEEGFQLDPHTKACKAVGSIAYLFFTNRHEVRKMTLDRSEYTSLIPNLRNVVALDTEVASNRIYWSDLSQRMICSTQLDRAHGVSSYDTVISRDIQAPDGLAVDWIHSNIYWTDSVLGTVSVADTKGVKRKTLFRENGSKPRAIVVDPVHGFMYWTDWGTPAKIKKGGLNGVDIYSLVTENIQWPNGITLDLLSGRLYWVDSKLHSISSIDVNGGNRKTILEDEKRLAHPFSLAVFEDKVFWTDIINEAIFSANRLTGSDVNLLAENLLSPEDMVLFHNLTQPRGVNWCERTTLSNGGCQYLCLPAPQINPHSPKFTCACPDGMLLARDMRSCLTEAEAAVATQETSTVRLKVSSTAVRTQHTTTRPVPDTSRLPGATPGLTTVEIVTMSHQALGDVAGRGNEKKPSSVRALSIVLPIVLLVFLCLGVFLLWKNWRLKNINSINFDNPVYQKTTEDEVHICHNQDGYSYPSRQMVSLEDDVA

Row | Binder | percentage of shift of the fluorescence signal in zone Q2
1 | DSGLCMPRLRGCDPR (modifications not checked) [bacterial virus clone expressing cyclic peptide SEQ ID NO: 11] | > 70%
2 | TPSAHAMALQSLSVG (modifications not checked) [bacterial virus clone expressing linear peptide SEQ ID NO: 21] | > 55.8%
